Test results published in patent publication US8287850B2, “Conjugates of hydroxyalkyl starch and a protein, prepared by reductive amination” (Fresenius Kabi Deutschland GmbH, priority 2004, dated 2012).

What was measured:
[1] = In-vivo half-life of alpha1AT samples in mice (alpha1AT-ELISA); details: 100 μl of 50 μg/ml i.v. tail vein, female BALB/c mice
Procedure: Female mice aged 8-10 weeks (BALB/cOlaHsd, Harlan GmbH, Borchen, Germany) were utilized as test organism (42 mice, 14 per sample). The “is bodyweight” of each animal was detected right before administration of the different sample solutions. 100 μl of a 50 μg/ml solution of the samples outlined below in a puffer pH=7.2 (20 mmol sodium phosphate, 150 mmol sodium chloride) were injected intravenously in the tail vein of the mice.
At 1, 2, 4, 10, 24, 31, […], hours after injection, two mice of each group were killed and whole blood samples (˜500 μl) were withdrawn from the heart of the animals. Serum was prepared using Microvette® 500 Z-Gel (Sarstedt, Nümbrecht, Germany). The serum samples were stored at −80° C. until the beginning of the alpha1AT concentration measurements.
alpha1AT concentrations were detected using a commercially available alpha1AT-ELISA (Immundiagnostik, Bensheim, Germany) following the manufacturers instructions.

[2] = cited from earlier work

Substance: A1AT: rh A1AT provided by GTC Biotherapeutics Inc., lot No. 080604A; starting material for the conjugation [Example A1AT]
- Plasma half-life in mice [1]: 1.2 h

Substance: Sample 3: plasma derived h alpha1 AT (SERVA Electrophoresis GmbH) [reference compound]
- Plasma half-life in mice [1]: 3.2 h

Substance: activated protein C
- circulatory activity half-life in vivo [2]: less than 30 min

Substance: HES-A1AT-conjugate: conjugate of aldehydo-HES (A) and (B) (MW 57,000 D, DS 0.76) with rh A1AT, example 5.5
- Plasma half-life in mice [1]: 3.6 h
